Positions count from the first letter of the chain named. Values joined by “and” are separate entries in the source; they are usually repeats but may differ in a detail not shown here. Equal entries are not always repeated.
Assays:
[1] = target: T1, TIM-3 (antigen; species and construct not stated for the assay) (UniProt Q8TDQ0 22-202, limits assumed); experiment: SPR (Biacore), run of May 30, 2014
[2] = target: T1, TIM-3 (antigen; species and construct …); experiment: SPR (Biacore), run of Apr. 29, 2014
[3] = target: T1, TIM-3 (antigen; species and construct …); experiment: SPR (Biacore), run of May 1, 2014
[4] = target: T2, human TIM-3 expressed on cells (human, UniProt Q8TDQ0 22-301); experiment: flow cytometry competition on 300.19 hTIM3 cells in presence of ABTIM3; signal is MFI of 0.51ug/ml 22C1-PE
T2 construct: also called huTIM-3; hTIM-3

huTIM-3/his [5] = target: T3, huTIM-3/his (human, UniProt Q8TDQ0 22-202); experiment: SPR (Biacore), mean KD
T3 construct: also called hTIM-3/his antigen

cynoTIM-3/Fc [6] = target: T4, cynoTIM-3/Fc (cynomolgus monkey, UniProt A0A2K5U3G7 22-195); experiment: SPR (Biacore), mean KD
T4 sequence: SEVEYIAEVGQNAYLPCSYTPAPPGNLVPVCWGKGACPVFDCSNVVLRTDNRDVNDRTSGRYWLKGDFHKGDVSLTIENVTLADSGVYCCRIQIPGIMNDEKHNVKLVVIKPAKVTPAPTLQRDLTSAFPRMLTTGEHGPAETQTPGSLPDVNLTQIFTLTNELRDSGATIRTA

[7] = target: T2, human TIM-3 expressed on cells; experiment: flow cytometry on cells expressing human TIM-3
[8] = target: T2, human TIM-3 expressed on cells; experiment: flow cytometry, 300.19 huTIM3 cells, detected by secondary Ab-FITC
huTIM-3/his [9] = target: T3, huTIM-3/his; experiment: SPR (Biacore), run 3
ratTIM-3/Fc [10] = target: T5, ratTIM-3/Fc (rat, UniProt P0C0K5 22-194, limits assumed); experiment: SPR (Biacore), run 3
T5 construct: also called rat TIM-3/Fc protein
T5 sequence (looked up): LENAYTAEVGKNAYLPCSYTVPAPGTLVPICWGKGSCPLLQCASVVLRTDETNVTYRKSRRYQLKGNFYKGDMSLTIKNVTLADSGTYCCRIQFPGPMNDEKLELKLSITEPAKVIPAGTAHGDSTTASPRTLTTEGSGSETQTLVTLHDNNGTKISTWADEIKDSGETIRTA

cynoTIM-3/Fc [11] = target: T4, cynoTIM-3/Fc; experiment: SPR (Biacore), run 3
huTIM-3/his [12] = target: T3, huTIM-3/his; experiment: SPR (Biacore), run 2
cynoTIM-3/Fc [13] = target: T4, cynoTIM-3/Fc; experiment: SPR (Biacore), run 2
[14] = target: T2, human TIM-3 expressed on cells; experiment: flow cytometry competition on 300.19 hTIM-3 cells against PE-labelled ABTIM3-hum21
huTIM-3/his [15] = target: T3, huTIM-3/his; experiment: SPR (Biacore), run 1
cynoTIM-3/Fc [16] = target: T4, cynoTIM-3/Fc; experiment: SPR (Biacore), run 1
huTIM-3/his [17] = target: T3, huTIM-3/his; experiment: Biacore, 2nd antibody injection; 1st antibody (competitor) huIgG1
huTIM-3/his [18] = target: T3, huTIM-3/his; experiment: Biacore, 2nd antibody injection; 1st antibody (competitor) ABTIM3-hum03
huTIM-3/his [19] = target: T3, huTIM-3/his; experiment: Biacore, 2nd antibody injection; 1st antibody (competitor) ABTIM3-hum21
[20] = target: T1, TIM-3 (antigen; species and construct …); experiment: FACS competition binding against the parent murine ABTIM3; cells not named on the sheet
[21] = target: T1, TIM-3 (antigen; species and construct …); experiment: SPR (Biacore), run of Apr. 7, 2014
cynoTIM-3/Fc [22] = target: T4, cynoTIM-3/Fc; experiment: SPR (Biacore), run 1; run 1 of three; cynoTIM-3/Fc
ratTIM-3/Fc [23] = target: T5, ratTIM-3/Fc; experiment: SPR (Biacore), run 2

B1: ABTIM3-hum10 (antibody, human IgG4 S228P, kappa, V domains shown)
VH: EVQLVQSGAEVKKPGESLKISCKGSGYTFTSYNMHWVRQMPGKGLEWMGDIYPGNGDTSYNQKFKGQVTISADKSISTVYLQWSSLKASDTAMYYCARVGGAFPMDYWGQGTTVTVSS
VL: EIVLTQSPATLSLSPGERATLSCRASESVEYYGTSLMQWYQQKPGQAPRLLIYAASNVESGIPARFSGSGSGTDFTLTISSLEPEDIAVYFCQQSRKDPSTFGGGTKVEIKR
notes: Humanized
Kd [1]: 0.107 nM

B2: ABTIM3-hum12 (antibody, human IgG4 S228P, kappa, V domains shown)
VH: B1 VH
VL: AIQLTQSPSSLSASVGDRVTITCRASESVEYYGTSLMQWYQQKPGKAPKLLIYAASNVESGVPSRFSGSGSGTDFTLTISSLQPEDFATYFCQQSRKDPSTFGGGTKVEIKR
notes: Humanized
Kd [1]: 0.355 nM

B3: ABTIM3-hum02 (antibody, human IgG4 S228P, kappa, V domains shown)
VH: QVQLVQSGAEVKKPGASVKVSCKASGYTFTSYNMHWVRQAPGQGLEWIGDIYPGSGDTSYNQKFKGRATMTADKSTSTVYMELSSLRSEDTAVYYCARVGGAFPMDYWGQGTLVTVSS
VL: DIVLTQSPDSLAVSLGERATINCRASESVEYYGTSLMQWYQQKPGQPPKLLIYAASNVESGVPDRFSGSGSGTDFTLTISSLQAEDVAVYYCQQSRKDPSTFGGGTKVEIKR
notes: Humanized
Kd [2]: 0.308 nM | Kd [3]: 0.269 nM | Kd [1]: 0.174 nM

B4: ABTIM3-hum11 (antibody, human IgG4 S228P, kappa, V domains shown)
VH: B3 VH with A16S, I48M, S55N, A68V, M70I, L113T
VL: B2 VL
notes: Humanized; Immobilized on Protein G beads and cross-linked with DSS in the HDx-MS experiment
IC50 (read off the curve) [4]: ~0.2 µg/mL | Kd (huTIM-3/his [5]): 0.163 nM | Kd (cynoTIM-3/Fc [6]): 3.14 nM | Kd [7]: 0.906 nM | EC50 (read off the curve) [8]: ~0.1 µg/mL | Kd (huTIM-3/his [9]): 0.109 nM | Kd (ratTIM-3/Fc [10]): 297 nM | Kd (cynoTIM-3/Fc [11]): 5.04 nM | Kd (huTIM-3/his [12]): 0.226 nM | Kd (cynoTIM-3/Fc [13]): 3.14 nM | IC50 (read off the curve) [14]: ~0.4 µg/mL | Kd [1]: 0.194 nM | Kd (huTIM-3/his [15]): 0.155 nM | Kd (cynoTIM-3/Fc [16]): 1.24 nM | change in RU (huTIM-3/his [17]): 83.2 RU | change in RU (huTIM-3/his [18]): 8.5 RU | change in RU (huTIM-3/his [19]): 8.1 RU

B5: ABTIM3-hum09 (antibody, human IgG4 S228P, kappa, V domains shown)
VH: B3 VH with A16S, I48M, S55N, A68V, M70I, L113T
VL: B1 VL
notes: Humanized
Kd [1]: 0.161 nM

B6: ABTIM3-hum07 (antibody, human IgG4 S228P, kappa, V domains shown)
VH: B3 VH with V37I, S55N, M70L
VL: B3 VL
notes: Humanized
Kd [3]: 0.199 nM | Kd [1]: 0.196 nM | IC50 (read off the curve) [20]: ~0.2 µg/mL | Kd [21]: 0.135 nM

B7: ABTIM3-hum03 (antibody, human IgG4 S228P, kappa)
heavy: not shown
light: DIVLTQSPDSLAVSLGERATINCRASESVEYYGTSLMQWYQQKPGQPPKLLIYAASNVESGVPDRFSGSGSGTDFTLTISSLQAEDVAVYYCQQSRKDPSTFGGGTKVEIKRTVAAPSVFIFPPSDEQLKSGTASVVCLLNNFYPREAKVQWKVDNALQSGNSQESVTEQDSKDSTYSLSSTLTLSKADYEKHKVYACEVTHQGLSSPVTKSFNRGEC
notes: as for B4
Kd (cynoTIM-3/Fc [22]): 1.04 nM | Kd (cynoTIM-3/Fc [6]): 2.67 nM | Kd (cynoTIM-3/Fc [11]): 3.08 nM | Kd (ratTIM-3/Fc [23]): 51 nM | Kd (cynoTIM-3/Fc [13]): 3.89 nM

B8: ABTIM3-hum01 (antibody, human IgG4 S228P, kappa, V domains shown)
VH: B3 VH with S55N
VL: B3 VL
notes: Humanized
Kd [3]: 0.114 nM | Kd [1]: 0.23 nM and 0.193 nM | IC50 (read off the curve) [20]: ~0.2 µg/mL | Kd [21]: 0.103 nM

B9: ABTIM3-hum04 (antibody, human IgG4 S228P, kappa, V domains shown)
VH: B3 VH with V37I, S55N, M70L
VL: B3 VL with Y91F
notes: Humanized
Kd [1]: 0.172 nM | IC50 (read off the curve) [20]: ~0.2 µg/mL | Kd [21]: 0.216 nM

B10: ABTIM3-hum06 (antibody, human IgG4 S228P, kappa, V domains shown)
VH: B3 VH with V37I, S55Q, M70L
VL: B3 VL with Y91F
notes: Humanized
Kd [2]: 0.498 nM | Kd [3]: 0.214 nM | Kd [1]: 0.364 nM

B11: ABTIM3-hum08 (antibody, human IgG4 S228P, kappa, V domains shown)
VH: B3 VH with S55N
VL: B3 VL with Y91F
notes: Humanized
Kd [3]: 0.309 nM | Kd [1]: 0.175 nM | IC50 (read off the curve) [20]: ~0.2 µg/mL | Kd [21]: 0.123 nM

B12: ABTIM3-hum05 (antibody, human IgG4 S228P, kappa, V domains shown)
VH: B3 VH with V37I, M70L
VL: B3 VL with Y91F
notes: Humanized
Kd [2]: 0.313 nM | Kd [3]: 0.279 nM | Kd [1]: 0.332 nM

B13: ABTIM3-hum21 (antibody, human IgG1, kappa)
heavy: not shown
light: B7 light
notes: Humanized
Kd [7]: 0.917 nM | IC50 (read off the curve) [14]: ~0.4 µg/mL | change in RU (huTIM-3/his [19]): 6.6 RU

— US20250213684A1 (Novartis, published 2025)
